Measurements from publication PMC8162121 (Nature cell biology, 2021).
Blank lines part the entries; values can stand above or below the binder they belong to.

Legend:
[1] = molecular target: Flag-tagged EZH2, purified recombinant (human, UniProt Q15910 1-746); assay: AlphaScreen or HTRF
[2] = molecular target: GST-tagged EZH2, purified recombinant (human, UniProt Q15910 1-746); assay: AlphaScreen or HTRF
GST-tagged EZH2, purified recombinant, sequence (Q15910 whole entry): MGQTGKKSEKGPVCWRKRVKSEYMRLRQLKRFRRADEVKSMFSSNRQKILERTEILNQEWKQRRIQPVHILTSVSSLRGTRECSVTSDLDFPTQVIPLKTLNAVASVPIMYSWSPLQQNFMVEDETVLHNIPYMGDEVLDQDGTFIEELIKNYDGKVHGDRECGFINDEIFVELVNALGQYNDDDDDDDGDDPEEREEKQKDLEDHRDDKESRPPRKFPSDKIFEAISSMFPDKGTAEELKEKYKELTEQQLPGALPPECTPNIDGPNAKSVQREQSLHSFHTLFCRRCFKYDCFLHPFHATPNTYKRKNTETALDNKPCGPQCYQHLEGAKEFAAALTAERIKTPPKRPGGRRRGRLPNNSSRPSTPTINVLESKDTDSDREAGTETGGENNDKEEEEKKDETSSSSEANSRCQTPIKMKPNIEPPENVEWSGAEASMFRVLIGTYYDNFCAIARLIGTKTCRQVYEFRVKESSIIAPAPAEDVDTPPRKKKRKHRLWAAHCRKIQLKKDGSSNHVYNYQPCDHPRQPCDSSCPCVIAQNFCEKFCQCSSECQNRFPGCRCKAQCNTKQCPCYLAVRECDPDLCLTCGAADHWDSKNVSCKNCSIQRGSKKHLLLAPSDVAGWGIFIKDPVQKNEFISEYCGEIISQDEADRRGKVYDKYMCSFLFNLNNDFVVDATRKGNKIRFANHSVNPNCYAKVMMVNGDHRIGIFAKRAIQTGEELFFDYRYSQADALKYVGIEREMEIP

Flag-tagged EZH2, purified recombinant, sequence (Q15910 whole entry): as above

- Kd [1]: 43.6 nM
B1: unlabeled NOP56, purified recombinant (natural protein, human, UniProt O00567 1-594, looked up)
chain: MVLLHVLFEHAVGYALLALKEVEEISLLQPQVEESVLNLGKFHSIVRLVAFCPFASSQVALENANAVSEGVVHEDLRLLLETHLPSKKKKVLLGVGDPKIGAAIQEELGYNCQTGGVIAEILRGVRLHFHNLVKGLTDLSACKAQLGLGHSYSRAKVKFNVNRVDNMIIQSISLLDQLDKDINTFSMRVREWYGYHFPELVKIINDNATYCRLAQFIGNRRELNEDKLEKLEELTMDGAKAKAILDASRSSMGMDISAIDLINIESFSSRVVSLSEYRQSLHTYLRSKMSQVAPSLSALIGEAVGARLIAHAGSLTNLAKYPASTVQILGAEKALFRALKTRGNTPKYGLIFHSTFIGRAAAKNKGRISRYLANKCSIASRIDCFSEVPTSVFGEKLREQVEERLSFYETGEIPRKNLDVMKEAMVQAEEAAAEITRKLEKQEKKRLKKEKKRLAALALASSENSSSTPEECEEMSEKPKKKKKQKPQEVPQENGMEDPSISFSKPKKKKSFSKEELMSSDLEETAGSTSIPKRKKSTPKEETVNDPEEAGHRSGSKKKRKFSKEEPVSSGPEEAVGKSSSKKKKKFHKASQED

- Kd [2]: 842 nM
B2: unlabeled FBL, purified recombinant (natural protein, human, UniProt P22087 1-321, looked up)
chain: MKPGFSPRGGGFGGRGGFGDRGGRGGRGGFGGGRGRGGGFRGRGRGGGGGGGGGGGGGRGGGGFHSGGNRGRGRGGKRGNQSGKNVMVEPHRHEGVFICRGKEDALVTKNLVPGESVYGEKRVSISEGDDKIEYRAWNPFRSKLAAAILGGVDQIHIKPGAKVLYLGAASGTTVSHVSDIVGPDGLVYAVEFSHRSGRDLINLAKKRTNIIPVIEDARHPHKYRMLIAMVDVIFADVAQPDQTRIVALNAHTFLRNGGHFVISIKANCIDSTASAEAVFASEVKKMQQENMKPQEQLTLEPYERDHAVVVGVYRPPPKVKN
